Test system: Ex1Q48-CyPet/-YPet
Test: FRASE assay: effect of added preformed fibrils/seeds on Ex1Q48-CyPet/-YPet polymerization
Format: biochemical, human
Conditions: sonicated Ex1Q48 seeds (~1,250 kDa); sensor 1:1 mixture, 1.2 μM
Description: (B) Effects of small, preformed Ex1Q48 seeds (1250 kDa) on Ex1Q48-CyPet and -YPet (1:1 mixture, total conc. 1.2 μM) co-aggregation. Data are mean±SEM (n=5).
(D) Effects of non-polyQ fibrils on Ex1Q48-CyPet and -YPet (1:1 mixture, total conc. 1.2 μM) co-aggregation. Data are mean±SD of triplicates.
Spontaneous Ex1Q48 aggregation was initiated by addition of 14 U PreScission protease (GE Healthcare) per nmol purified GST-Ex1Q48 fusion protein (2 μM). The aggregation reaction was performed in 50 mM Tris-HCl pH 7.4, 150 mM NaCl, 1 mM EDTA and 1 mM DTT at 25° C. and constant agitation (450 rpm) for 24 h. […]
Purified GST-Ex1Q48-CyPet and GST-Ex1Q48-YPet were diluted in aggregation buffer at an equimolar ratio to a final concentration of 1.2 μM (0.6 μM each) with 14 U PSP per nmol sensor proteins if not stated otherwise. […] For quantification of seeding-competent HTT species in tissue samples, the sensor-protein mixture was supplemented with up to 10% (v/v) tissue homogenate. Fluorescence signals were measured every 20 min following a 5 s pulse of vertical shaking with a Tecan M200 fluorescence plate reader at 25° C. for up to 48 h. CyPet donor fluorescence was measured at excitation (Ex): 435 nm/emission (Em): 475 nm; YPet acceptor fluorescence at Ex: 500 nm/Em: 530 nm; the FRET channel (DA) was recorded at Ex: 435 nm/Em: 530 nm. […]

threshold for detecting seeds in FRASE assay: ~60 fM
B1: Ex1Q48 seeds: preformed recombinant mutant huntingtin exon 1 (48 glutamines) aggregates, sonicated, ~1,250 kDa (protein)
chain: MATLEKLMKAFESLKSFQQQQQQQQQQQQQQQQQQQQQQQQQQQQQQQQQQQQQQQQQQQQQQQQPPPPPPPPPPPQLPQPPPQAQPLLPQLQPPPPPPPPPPGPAAAEEPLHRP
